assay: soluble fraction after stress (log2 fold change); higher = more stays soluble; pooled small domains, quantitative proteomics; conditions: stress: 50 degC
How it was run: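 After stress at 50°C, the amount of each protein still soluble was measured. This was done on pooled custom libraries of small protein domains, using high-throughput quantitative proteomics. The figure given is a base-two log fold change and stands for aggregation propensity, with higher values meaning more protein stays in solution.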

Compared with “HMHDEKHHQLANEIARKWAALRGNRDFAAADELKNLAAEAGVELQATKQAVGQGALAKLKENFDPVKLEAL”, “HMEVSTRQVRAALRDIIEAEDKKRPLSDEAITARLREQGLPVARRTVAKYREQMGILAARLRK” is lower in “soluble fraction (log2)” value: 0.188 for the first, -0.309 for the second.

Going from “HMLFGKKYLGKVPNDASGRISLWNDIVKHHQELQNIRAIENFTSDNVTVAQGDTKKAVVVTDYVT” to “HMETLYGQIVNDIMEKIESNAWPVGYVIPTESDFQKQYGVSRATVRNAILKLAHLGYLVRKKGSGTYVTRP”, the “soluble fraction (log2)” value falls from -0.0557 to -0.975.

Going from “HMSRDYKTELQERLQVNGPVKIEYQVIAEDESKPSFKVQLLVNDKKISEGQGRNKKAAEQQAAQAAL” to “HMATPYISMAGIGKSFGPVHALKSVNLTVYPGEIHALLGENGAGKSTLMKVLSGIHEPTKGTITINNIN”, the “soluble fraction (log2)” value rises from 0.0625 to 0.384.

Going from “HMDAVKKKVQSTNTLLDVLKQMLPQTSSNTLRKMLTNQRITVDGETIHRAKHTVEKDQTVEIHPKP” to “HMKILNYQSLVGKKGITKSMLRPAGIVEIEGRRYDVVTRGEFIEPGKMITVDEVQGNRIIVQIERE”, the “soluble fraction (log2)” value falls from 0.256 to -0.165.

Compared with “HMDEDTWKLYKRAYKKYYARYMKGNMSEAAFKAWGEQAAADRDAAIEQLRATTDAALSASIIQQLKEKLNR”, “HMDAYMIGHNIAKWRKEKGMTQDQLAEHLSVSGQAVSKWENGASLPDIAILPKLAEIFDVTMDQLFSR” is higher in “soluble fraction (log2)” value: -0.581 for the first, 0.144 for the second.

Going from “HMDDYRIEDMMTVVEEQVIRQKETNLSWFFKRAGSLNEIITIFLAALELIKVHRVYVKQEHNFDDIILRKE” to “HMVMNYKKIGKKIADRRILLGITQEELAEKVDSSANYISNIETGIKSGSLIFYIKVANELKLSLDFLFSDE”, the “soluble fraction (log2)” value falls from 0.133 to -0.893.

Compared with “HMIADPLVINKLMDSMALAINDYNPDSVEPVLDELRQYFSENQLRELSKAMDDFDFDEALNALTLLRT”, “HMQRIFIDNHDRILYYSNPAGYIAGKEAVVDTMFQTQELERFLQKQSLSIRWEDGVYDRLLLGQ” is higher in “soluble fraction (log2)” value: -0.382 for the first, 0.016 for the second.

“HMERPLFVIEDYRRFAGNEVEISLKKGGKKIRGVIAGTPSDAEVTVRTQGGETTVPLGDVKRAHLVYV” and “HMSSGKTGTITLQPKQTVYGITKQYKISEADLRKLNPQLDSNLKIGDKITLPLDNIQRYSDSSSNVAQT” are within 0.2 log units of each other in “soluble fraction (log2)” value: 0.123 for the first, 0.211 for the second.

First: HMQMEDTDALLQVAKEVVAENQDTVEAYLGGREKAFASLIGAAMKKTRGKANPKVIRQLILDLIQ
Second: HMVRDGDTFVVPKMDRFARNVEDTLHLVRELTERGVIFQMGHTVYDPHDPWSKLFLTFLAAIAEA
The “soluble fraction (log2)” value of the first is higher: 0.254 for the first, -0.00927 for the second.

“HMDGVPPAGSRIRLTVSTQVGDKEFEGTLVPPAGVDLLTLKLANGYNLSHSIADVREVVLIEEGLQGEEP” and “HMDMQNIQKGLSAIEPGRTFSREEYYAAIQNGSEMLLKEDALAYSLRKSLSDGDIVRVSWNQYAIP” are within 0.2 log units of each other in “soluble fraction (log2)” value: -0.0515 for the first, -0.116 for the second.

Going from “HMKFPNVGENLRLLRQEMGISLDKASKMTGVSKAMLGQIERGESSPTVSTLWKISSGFKINFTTLLSE” to “HMSVFGMEIGKTTEAEAGRMYRLNKEQLNPYSGGYQYSVNPKAIDFSGLEQVTLIFDEKKVLVYVQAV”, the “soluble fraction (log2)” value rises from -2.38 to -0.0837.

“HMITMADKIDTALSEMAANNEKINVSQVAKRLGISNSAIYKFNPEKIPDIQTAQKRQKHKAEAIAVGTEN” and “HMSATIMVLRASEDIPVGTEIKDNHLTTVEVGSYGLPEGAINDKDTVLGKVAQTNIIKGDYFFPQKLGG” are within 0.2 log units of each other in “soluble fraction (log2)” value: 0.215 for the first, 0.152 for the second.

First: HMVDFHAAYSILRIAPGASWQEIQAAYEKLNDAWREDRYPQVPFWNEKAAFKRREVEQAYEKLRKFHALRH
Second: HMLSPAQSLLLRTAARRPDGRVIPPDTLRGGARVKVLTSLLQRGWIEPVDGGHVLTDAGYAAIG
The “soluble fraction (log2)” value of the first is lower: -0.845 for the first, -0.353 for the second.

First: HMANADVVLVDLDKEYTVDAAKFHSVVKHSPFNGFAVKGAPVLTIVRGTVVAENGEVVGQPGHSKMVRP
Second: HMVAPKTEEQQKMFLESIVTKRQAETLIEKYPNIVQDIIDGTDNVDLANLKGIGEHTYNLIKEKVLSNY
The “soluble fraction (log2)” value of the first is lower: -0.0579 for the first, 0.279 for the second.

First: HMPEVYSFEVNEGAAGKRLDIFLSGEIEGLTRSFIQKLISEGMATVNQEPPRASYRVKTRDLVELQIPDPE
Second: HMLERPLKLKSHYVSAINEKVAVQFQAGEERKSIMGTLTEVNQDTIVIDDRGSVTEIPFKSIIRAKTVF
The “soluble fraction (log2)” value of the first is lower: -0.488 for the first, 0.258 for the second.

Compared with “HMSERVVVPDLTGKDLVAAQSELREISLAGREEGPGDKVRRQFPVAGVKVPKDTVVILYTED”, “HMPKKLIWERTTSKLQLYITQDRYELKTPLMTIPFTSKSKMMVYLQQRYHLDMQEYRQIYDAG” is lower in “soluble fraction (log2)” value: 0.125 for the first, -2.21 for the second.

Compared with “HMLENIVFTNKFKNKRLDVLLVDMKLVSSRQKAVSLIMRGNVFVEEERADKPGKIIKLNQTISLKK”, “HMAVNVNGIHLSSQQHEALVSIWRTGRMPEPHAGQKPWLWIQALRRRGLVSGNALRLTDKGRHIVQLLQ” is higher in “soluble fraction (log2)” value: -2.6 for the first, 0.142 for the second.

“HMGPSLIRIASNPVAEVFIDGTRVGTTPFEMPADGTLKTVRLTAKDHDDLVVPLRSMKSMEIMLTLRRI” and “HMLPLPRFASLDSSEANLRAGPGKDYPILWVYQRKGLPVEIIQEFDTWRRIRDRDGTVGWVQQNLL” are within 0.2 log units of each other in “soluble fraction (log2)” value: -0.589 for the first, -0.405 for the second.

First: HMADLPQATALADVKGDVQMQGIQFGYDPEKIIIHDLNLHARPGSLVAIVGPTGAGKTTIINLLMRFYD
Second: HMHANAALTPRQRLRLAQKIVDEEWTVAAAADYFRVSWPTAAKWARRYVELGEAGMADRSSRP
The “soluble fraction (log2)” value of the first is higher: -0.313 for the first, -2.1 for the second.

First: HMKEVKRDQVIEAARKLFHQFGFKKVSMDEIAKEAGVTKKTIYMYFESKEELLKYFIQEEISN
Second: HMTALPPNVSIDSDERRLLEAIGFDPVDMDVLARDGQFSSVDLFRLLVSLELKGLVENQHGAYQRL
The “soluble fraction (log2)” value of the first is higher: -0.224 for the first, -1.31 for the second.

Going from “HMQISDDGFILKIINEVVAENPKSISDYISGKEAAVGFLVGQIMKKTRGKANPKLVNEMLITELAKLKN” to “HMNEQKVSSLLTPRQLAFIDEYLIDFNGAQAAIRAGYSHKTAGPQAARLLVNVNISRMIAERIEARNK”, the “soluble fraction (log2)” value falls from -0.0439 to -1.7.

Going from “HMVMPTGRVRYYDAEKGFGFLSKDSGGDDVYVRSSALPAGVTSLKRGQKVEFGIIDGKRGEQALSVHLL” to “HMQDLVAVPALTGLTENDAINKAKANNLIAVVSEYKTENSVEPGKVLEQDPESSTEVKKGTIIKLVVS”, the “soluble fraction (log2)” value rises from -0.0933 to no less than 0.62.

“HMGGSIDITTAPPGAKIYLDADYYGKTPKRLENISAGTYRLHLLHPEKGEVYRSVTLNEKNGTLKIDENLN” and “HMGGPRDVPYSTFLIEVEKGQVAEVTIQDHKITGTYKNSNEPFITNAPDDPDLVSRLIKYGVGVQAKPPE” are within 0.2 log units of each other in “soluble fraction (log2)” value: 0.124 for the first, -0.0153 for the second.

Compared with “HMEQKISVPALVGRDIEEILADTEVTGNFTIKEADKRVASNRPVGEVLEQDPGTGESAVKGTIITVTVSAG”, “HMERTQSIEAAREQLGEVTKDNVFETETLGALAILKENEPGEYAKIKADLKGKINMNDLERAVKKAAADQR” is higher in “soluble fraction (log2)” value: 0.0124 for the first, no less than 0.62 for the second.

First: HMNQYIFVLNEKGARITSFVDNTIPKEELIALAKQDYPNAADYIYSADGDSMLDEFMRGKLYVNGQFVAA
Second: HMQYDESSQLGERFLNQALNALKADPDKVGDAQWEKLLKENSAKSRQEVLADIGLGKQLAIVIARELLS
The “soluble fraction (log2)” value of the first is lower: -0.69 for the first, -0.115 for the second.

First: HMQVSDEGAIQLLVQKAIEENPQAIEAFRGGKTSALGPVVGWVMKQSKGAANPTMVKTLLEKAI
Second: HMLTRSTVNVETGTAAIGLGKLYGVYDMSRKGLKYSFSVDSDAMTKVMEMLLPLGIKSLTVEPPS
The “soluble fraction (log2)” value of the first is higher: 0.293 for the first, -1.57 for the second.

First: HMKDLIGEAKAKELALGHAKLSASDVTFIHVELDWENGRRVYDVEFYSGAKEYDYEIDAKTGEIVSFDY
Second: HMQPPKIISTVEPYREVVREYLKQGVEMTAIWQRLRENYQYTGSYSSVRRFVAQLEPRQPEA
The “soluble fraction (log2)” value of the first is lower: -1.27 for the first, -1.01 for the second.

Going from “HMALPQPDDDRQDTKKRILDMAEDLLLTRGFNAFSYQHISSELGMKNAAIHYHYPKKNDLGVAVIQRYRRR” to “HMLARFSGIALNTWTQADVERTFGPPMLVERVARFDGDIWTYRFMDDYEPRMAHIHIDRAGTVRQLVF”, the “soluble fraction (log2)” value falls from 0.151 to -2.77.

“HMGSKDLPFSTFMSEIDKGNITSVDIRGNEIQGTFANGTKFRTYSPNYPNLVEKLNGKGVSITAGPV” and “HMGMGIGQIIKEKRTALKMTQNELAERLGVSQQSVTGWENNAAVPRESAVRGMMDIFGLSRNELFGEP” are within 0.2 log units of each other in “soluble fraction (log2)” value: 0.215 for the first, 0.331 for the second.

“HMEQEVLDLLFDAIRSLPEKYRRLFDMSFEQGLKNAEIAALLHVSESAVKKQKASMIQQLRDDLLRKTGKD” and “HMEATVGSRVRLARIGLTLTQKQLAQAVGVSANHLAMVERGSKHASEDLLQRIATATHTTYEWLMGTSEHQ” are within 0.2 log units of each other in “soluble fraction (log2)” value: -0.693 for the first, -0.845 for the second.

“HMAPAPDEAFAEFVRSSAPSLTRTAWLLTGDRGHAQDLVQNAYAKTLQAWGRLDAEGALAYTRRAVIT” and “HMENSLLSESLAKIYIKTHRYERAYEILSRLSLAVPEKNAYFADQLRFLRKVMLAESFRKQHS” are within 0.2 log units of each other in “soluble fraction (log2)” value: 0.00536 for the first, -0.00623 for the second.

“HMIIENIVVEIKGEVYNPGLYILEQGSRINDLIELSGGFTKDANGTDLNLAKVLSDGEVIIVSKKG” and “HMDVNPETLSYYIERADISLDELRTSVKGIDLFLTGEKQPTFNQISNIAKKLNIPTGLLLINKPIEI” are within 0.2 log units of each other in “soluble fraction (log2)” value: -0.2 for the first, -0.375 for the second.

First: HMRKKIIAQTLEEIRKSKGYSQKQVAAFIKVKPTTYNTYESGRTEPPAEILVRLSYLYRTPVDTLVQRDR
Second: HMLETIDIFKVTGGEPFLSKDFLEILDLAIEKDLAKNITLMITTNASKFVKKILDKFIHFKRVEFTVS
The “soluble fraction (log2)” value of the first is lower: -2.07 for the first, 0.0202 for the second.

First: HMGGEGQIEIREREGIPAEAWVDGVMRGQTPLRVEHVSIGTRRVELRAEGRPPVAADVLVRPTVTALVELS
Second: HMKRKAIDQSWQPDKEAIEILSKAGVNEEFIKEEIPEFILYWSEKGEESDTWNSKFIAQVRRQWAKTQH
The “soluble fraction (log2)” value of the first is higher: 0.271 for the first, -0.0567 for the second.

First: HMTDFNTFSDAIIAAVGSRASGLKVVDNAVSVMVDVSGLNEDQRVEIEADVRAAAEHAGAQSVRIMLT
Second: HMAGDDEIEKIAQDILAAWPDKVAAYQAGNKGLMGLFMGELMKKSQGKANPKVASGIIQKLLD
The “soluble fraction (log2)” value of the first is lower: -0.438 for the first, 0.0445 for the second.

Going from “HMNNLKTKELSKIGYTNDKARSLVISIIPKHFKYHSKSEIIELLTNIKNKPEDYVSDEILGKIAETFMEKI” to “HMNRIKIYPTPGSKVLSIENINFSLIHDFKILDIFGREVKNFTVSSEKNTKMLVDTSKLSDGLYFIFFNTF”, the “soluble fraction (log2)” value falls from -0.215 to -0.58.

Going from “HMSIGKEATPDDIVPNIRVYHATFGYGNVIKTDGVSHDKKAVVNFDSVGEKTLLLKFAKLILPY” to “HMAGTGKVNTGVANVRSGPGTNYEISGKIYADTEVSILETSNGWYKIKFGNLTGWMSGTVLDIK”, the “soluble fraction (log2)” value falls from 0.138 to -0.138.

In the case of “HMIPEILNGYTKWGDDEPFEDHAGPFYMKMMPSTGRHLSAFIPEQRHMNGGGFLHGGMLMSFADYALFVI”, the “soluble fraction (log2)” value is reported as 0.00747.

From the domain aggregation screens of Martell et al. (2025)
